# Results reported in a protein production outcome set (Wang et al. 2014).
# Assay: label from the status in PepcDB records
# 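Also: failed if final PepcDB status was selected cloned or expressed and not failed if soluble or beyond.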
row,Sequence,protein production
1,MRFPPLLFFQDSEAVKRIANSVRGTKDDDAEIKDHSMRFIRNAISGDQQKEILNVDMLRYIAWVLVALNENIVTARTVIRERDAVEDALKNQQPEDIENFADDLKINMKYNRDLERFEIGVFDFVKYASRVTGSQYRLSNQSVIKGIVYCQKDVAIKILRESFVSNMFKVIDSIDQTTASPVLSDQTDSINELREFYKKSVYAKLTIGRGNTKAFPPCMKEIIRNLHEGINVPHMGRLAIASFLHKVGYTEDEIVEYFRNAPDFDESITRYQIKHLSGEISGVEYSPPKCETMRSNHLCFMDDDKLCHQDWMKHPLTYYEVKSRRLGLEHHHHHH,failed
2,MRFRDRRHAGALLAEALAPLGLEAPVVLGLPRGGVVVADEVARRLGGELDVVLVRKVGAPGNPEFALGAVGEGGELVLMPYALRYADQSYLEREAARQRDVLRKRAERYRRVRPKAARKGRDVVLVDDGVATGASMEAALSVVFQEGPRRVVVAVPVASPEAVERLKARAEVVALSVPQDFAAVGAYYLDFGEVTDEDVEAILLEWAG,not failed
3,MRFRNAILFVALAIAWGSAFTAIKAGLEYFPPILFAAFRYDLAGLLMLGYAVYATDQWVPKSRTDWIVVGIGGSLLIAAYHIFLFVGEQGTTSAAAAIVVSLSPILTTGFARAFLPDERLTTLGIVGLLVGFLGVGVLSNPDPGNLLNPRTVSLFLVFLAAASFALGSVLTRRFDDDLEIETMEAWSMLLGAVLMHGISFGVSESVADVQWTTEAVLALLYLVVVASALGFLIYFDLLERLGPIEINLVSYAAPVVAAATGLLFLSETPTVYTGVGFTCILVGFGLLKRDALRNEVARFSGTPNRGE,failed
4,MRFSSIFKIIILNIFISKMAHAAVCEERYPADSEECQYVQELEQKAEQGDESAQFALGSWYAEGRYVKPDYKLAIKWLEKAGKQGSDFSYFILGYHYNYGENFPLSRQKALEWYRKAAELGDSSTQEILGDAYMYGDGFPQNTQLALEWYRKAASPTNDAGVVRGQGSASSAQFKLGVMYAHGQGVPQDYQQTAILMRKAAENMYYPAQLYLGVAYFYGEGVPQDYRQAVYWLNEGIPGSYTPGHIPLSALYDKAHPADRVHSQTWYRKTAQRVMAKVQYNFGVWYYNGYHLLKDHNLALEWYRRAAAQGLAEAQDAIGVMFMQGEGVSQDYQQALAWYRKAARQGLPAAQTHLGIMSAFGRDVAQSDRQAIAWYRKAAKQDFAKAQYQLGVAYSTGRGVPENSRNALKWYLKAAEQGFTPAQSALGEIYAHGRQGVPKDNKQAYIWYYMASMYTEKSKDDCSALIAERNRLKGTLTPDQLSETYAAFNLIWRKIDQSKEAKKIARKKY,failed
5,MRFVVAFFWTFLLTQMACYIVGAMNGAGYDLQTSVIMGFIITAAVIVLGEIMPVKQDASQH,failed
6,MRGEFLSRSADETREYARRFASGLKPGDTVCLTGPLGAGKTEFMRGITEAFGCEEQLSSPTFSLMNIYEGLLRGQPFELHHFDLYRLESEKELDSAGFDDYLSGPFLSVVEWGERFASLDRRYTRRVQLFIAGESQRKIVIT,failed
7,MRGLRSESKVLELVVIPADHSIAELLKMKENEPVNKLVRVRYAEGEPLQYHTSYIPWKAAPGLAQEECTGSLFELLRTKYNIEISRGTESIEPILTDETISGHLLTNVGAPAFLSESLTYDKNEEVVEYAQIITRGDRTKFTVEQSYHS,failed
8,MRGTAAIEGPGSQSMITRRGFLRFIGGSFLTAAALGAYAVGIEPMLLTHVKRYALTPPHWPDGLKLRVVALADIHACRPWMTQERIASLVEDANALQPDLIVLLGDYIAGMPLVTGPVTPSQWASALSGLKAPLGVLSILGNHDWWSDGFAQRAGAGPIIARKALEKVGIPVLENDVVRLEKDGQSVWIAGLADQLALLPARKGDDCKGLDDLDGTLAKVGDTAPIILLAHEPDIFPTVPSRVSLTLSGHTHGGQVRLFGYSPVVPSRFGNRYAYGHVVEKDRNLIVSGGLGFSIMPVRFGVRPEILQIDLG,failed
9,MRGWILYKETATQLKPEWYEIERLLAAAKADNIELEVYAPDEFDLTVTREDNKSILLNGQPVELPDFIIPRMGSGTTYFALAIIRHLERLGVYCLNPSKAIEIVKDKLFSQQLLAEKNLPTPKTMLVKFPVDIDLVERHLGFPVVIKTLSGSQGSGVFLSHKAREFDDLMQLIEATNKNANIILQEFIANSHGRDLRVFTIGGRVAGCYERRGQEDSFKANVSAGGSARPFDITPEIEWLATQTANILDLDVAGIDLLFDNGHYKICEANSSPGFEGLESCLNVDIAAQILHFIRIRLGMFNKDEKNSDPQLTHAGPALANNVTSSKAAE,failed
10,MRGWTAVTDTAGTPSGDGPEQAAVPGPGGGASPIGAGLVRRRRRWLRHTAFGVAALVLGAAGAGWAVYEKLNSNITADEAAAAELARYEKERPTSLVRDAQNILLIGSDSRSGDGNSQYGRDTGTERSDTTILLHLPANRHSATAVSLPRDLMVDIPSCRRPDGTRTAPTFAMFNQAFETGGSACTIRTAEKLTNVRIDHHMVVDFSGFKEMVDAVDGVEVCLKDPIDDKDAKLRLPAGKQLLDGEQALGYVRARKSIGNGSDTDRMDRQQRFLGALVNKVQGNDVLLNPVKLYPVLDAATSSLTTDPDLASLRGLYELVRGMRNIPPERVQFLTVPRTSYVNNANRDQLVEPDAEKLFARLRADAPLEVAKDYAGYDEQSGGDGTLSGKPLDTPAGTPDPTPTFRGNTAAEDGCE,failed
11,MRHDDARGRPGTRIAWRATFAAKRGEALRADHLRYRPQAGSPGALHCFVLDCSASMLTAERLARAKGLVVALFDSLARERADAALVCFGGNSAGVRFGPAVPRWWNERWLAPVGAGGGTPLARGIGAATRLLARAARRRPRQQRWLWLLSDGRTTEAPARPAFADRIVIVDFDDAAVRLGRCERLAHAWGAALVTPQALERGGG,failed
12,MRHITTHDAPATGLRSIADTSWHVRGACHGMDIEDADAVFFPGPRDHEEIAEAKELCGWCPVRRACLDFALENVLKEGVWGGLTEAERRPL,failed
13,MRIDTQEQLVTLLNALFEKVGINLEQVSKLDNYGVMFSVPGTMKPLIATLKTVTTPTNWNNETNLGHYKSADENWLLCLKPAPHSVFCIATVCSLHEKHLEQYIETSEKKQDRRIAAEHGDPEAQYYTAQDCEDKTEALFWYRKAGEQNHYWALYQIALMYEAGEGGLEKDFAQAILWRGKAAEQGSDAAARDLAEMYEEGTADIPQDLTLAIFWYERWLELSPVMRRMIKPKIKSLKAALSQRMNE,failed
14,MRIEAAELRILELPLKFRFETSFGVQTKRTILLLRLFGEGLEGLGEGVMERLPLYREETVAGARYLLEEVFLPRVLGRDLPNPEALREALAPFRGNPMAKAVLEMAFFDLWAKALGRPLWQVLGGVRQAVEVGVSLGIQPSVEDTLRVVERHLEEGYRRIKLKIKPGWDYEVLKAVREAFPEATLTADANSAYSLANLAQLKRLDELRLDYIEQPLAYDDLLDHAKLQRELSTPICLDESLTGAEKARKAIELGAGRVFNVKPARLGGHGESLRVHALAESAGIPLWMGGMLEAGVGRAHNLHLATLPGFTKPGDVSSASRYWEEDIVEEALEAKDGLMPVPEGVGIGVHLKLPFVERVTLWQRYMSAS,not failed
15,MRIEVVNVSHIFHRGTPLEKKALENVSLVINEGECLLVAGNTGSGKSTLLQIVAGLIEPTSGDVLYDGERKKGYEIRRNIGIAFQYPEDQFFAERVFDEVAFAVKNFYPDRDPVPLVKKAMEFVGLDFDSFKDRVPFFLSGGEKRRVAIASVIVHEPDILILDEPLVGLDREGKTDLLRIVEKWKTLGKTVILISHDIETVINHVDRVVVLEKGKKVFDGTRMEFLEKYDPRFFTSKMLVMRRLVLKGEDPFSMSDDELLERVCNS,not failed
16,MRIFIAFEGSFEAFDVAAHTSVGAIKQMVKDYFHIPLSEDKQGRWYLELTYAGAALKNNWSLSDVGISFCSTLKCFVKKEDKPTLYVFNAVTQETMAIKENMSILDRKVSDLRMLVTLSCGFPVSVYCLRTPAGLEMYDCNTLKDYQTDIGTTLRLDVWDGWKEFLMGCLLGQKPKVQRYLSKEGPVLKYQKRVALYIAAFHGHTELTEWALKQGAQPHEAVGVHPCRAWCHEALHTDVSNCPIHAAAEAGQLLILKAFVNFSVLCLECKNAAGQSPLAIASKHQHKDCVLYLLSKIWSTVSFLKLSVPMRIYIKIKQWILRAQTRRCHKSQPSRARVSGAKVGDTVMVDGFTKPKMTSKSWYKAEDKSWHTAQSKLPPCKQQPSRKPIGSLPMSQHDTKKQIFTFPSLVDAKNFSEVQSYQQENQKKIAAPARKEKNIKNPYLPQVPLPPVSRVHYAHPQFYCTPPSGDCLLRSLFKSFSEHSGRTPRENAIYCLAVASAFKEKRWLQQLEIARVLAKRSISNLTVKGGPAKCENYPESVL,failed
17,MRIGMRLLLGYFLLVAVAAWFVLAIFVKEVKPGVRRATEGTLIDTATLLAELARPDLLSGDPTHGQLAQAFNQLQHRPFRANIGGINKVRNEYHVYMTDAHGKVLFDSANKAVGQDYSRWNDVWLTLRGQYGARSTLQNPADPESSVMYVAAPIMGGSRLIGVLSVGKPNAAMAPVIKRSERRILWASAILLGIALVIGAGMVWWINRSIARLTRYADSVTDNKPVPLPDLGSSELRKLAQALESMRVKLEGKNYIEQYVYALTHELKSPLAAIRGAAEILREGPPPEVVARFTDNILTQNARMQALVETLLRQARLENRQEVVLTAVDVAALFRRVSEARTVQLAEKNITLHVMPTEVNVAAEPALLDQALGNLLDNAIDFTPESGCITLSAEVDQEHVTLKVLDTGSGIPDYALSRIFERFYSLPRANGQKSSGLGLAFVSEVARLFNGEVTLRNVQEGGVLASLRLHRHFT,failed
18,MRIHDIDPDNRPRERFLRSGKESLSPAELLALILRSGTAGLNIIDTCNKLISEHGLERLADLSIQELQKTPGIGEAKAMQIAAIFELQRRLHFARNMNLKVKGARDVFEYMKGRIPDETKEHLFVLFLSTKNQILRHETITIGTLTASLIHPREIFKAAIRESAHSIILVHNHPSGDVQPSNADKQVTSILKKAGDLLQIELLDHVIVGNNDWFSFRDHALL,failed
19,MRIIKFPEQISEDIIHYTFLDDIISYNCEKCRGSCCHVNNSLLLDAKTASFLKRTYLKDFIVSDDSVSLLSCGKKCWFHSELGCTINDLGLNKPLTCELYPFHIKKIQNFYIVSFTPCPTFQLNLGEGQRYKDIEDVVLRYIKTGVPVFSPSLHVSEERLKYEIEYQNNFKNTLSEYYRTKTADGTTEFKEYEKWYIYYLDFRWGSIPLSYTSSQANQFWNLYKRVCEDVYKKISYIRTDNIYFIIANQFNKTISKHFQLNFIDKELEHHHHHH,not failed
20,MRIKNKCLVLLIPLGISIMFDIRVKAFQPVSHYVVIEQAESKMSNDSIIRKAIEAYPNVAAWGSVGPDLGYMQVGELGDYSPWGDRYHYYKVGTYAAKQLKNALETRDMKKIAFAAGWISHVTGDLACHGIYVNPECGVYLDNKDGRKQHKHMEAEAEPYAWVNIAGHSINDYNSNNMSNNVFKGTDDIPFDLMNETSKEVYGQSPSTAEEKLWASTLLTGLRTGVGYSYTDYNESKQFLSINSREQRLNASFSQGINQCYKLLTYSENGDYSKFTDRWNLDVGKSSSPISSLTTIISTGTNLGSGTDDDIYFGIHLNNGQKKEWLLDKETYNDFENGATDEYYLYINDMDFLPTMVDKVWVRKNSTGSFAGNWFFKALRIDANGNDVLSVSPNEWITDSNSQAEFNSDWSSVTNLTDPEF,failed
